According to US20200289575A1 (NSAGE, published 2020):

Target: AGE-albumin (advanced glycation end-product albumin), Sigma-Aldrich
Experiment: cell-based or functional assay

B1: sRAGE (soluble Receptor for Advanced Glycation End-products), cat. RD172116100, Biovendor (receptor)
chain: MRGSHHHHHHGMASAQNITARIGEPLVLKCKGAPKKPPQRLEWKLNTGRTEAWKVLSPQGGGPWDSVARVLPNGSLFLPAVGIQDEGIFRCQAMNRNGKETKSNYRVRVYQIPGKPEIVDSASELTAGVPNKVGTCVSEGSYPAGTLSWHLDGKPLVPNEKGVSVKEQTRRHPETGLFTLQSELMVTPARGGDPRPTFSCSFSPGLPRHRALRTAPIQPRVWEPVPLEEVQLVVEPEGGAVAPGGTVTLTCEVPAQPSPQIHWMKDGVPLPLPPSPVLILPEIGPQDQGTYSCVATHSSHGPQESRAVSISIIEPGEEGPTAGEGFDKVREAEDSPQHM
cell viability of HT22 cells by MTT assay (percent relative to control): 101%
